# Laboratory results: US20190300590A1 (PROTAGONIST THERAPEUTICS, published 2019)
# Bridges are numbered along the chain shown (N, C = ends). [ ]: non-standard residue; d: D form. Phe(3,4-(OMe)2) = COc1ccc(C[C@H](N)C(=O)O)cc1OC; Phe(4-CONH2) = NC(=O)c1ccc(C[C@H](N)C(=O)O)cc1; 2Nal = N[C@@H](Cc1ccc2ccccc2c1)C(=O)O; AEF = NCCOc1ccc(C[C@H](N)C(=O)O)cc1; Pen = CC(C)(S)[C@H](N)C(=O)O; αMeV = CC(C)[C@](C)(N)C(=O)O; Aib = CC(C)(N)C(=O)O
# T1: IL23R_huFC (human, UniProt Q5VWK5 24-353)
# T1 sequence (looked up): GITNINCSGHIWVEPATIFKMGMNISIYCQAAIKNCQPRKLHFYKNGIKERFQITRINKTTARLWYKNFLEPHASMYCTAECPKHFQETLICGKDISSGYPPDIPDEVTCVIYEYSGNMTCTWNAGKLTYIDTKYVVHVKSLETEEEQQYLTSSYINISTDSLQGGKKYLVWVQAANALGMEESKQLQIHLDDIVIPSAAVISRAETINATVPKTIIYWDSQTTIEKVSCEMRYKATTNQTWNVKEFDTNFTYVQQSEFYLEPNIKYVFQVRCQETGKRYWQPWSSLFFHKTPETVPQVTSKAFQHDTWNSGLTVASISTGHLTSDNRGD
# T2: IL-23R on DB cells (human, UniProt Q5VWK5 24-629)
# T2 sequence (looked up): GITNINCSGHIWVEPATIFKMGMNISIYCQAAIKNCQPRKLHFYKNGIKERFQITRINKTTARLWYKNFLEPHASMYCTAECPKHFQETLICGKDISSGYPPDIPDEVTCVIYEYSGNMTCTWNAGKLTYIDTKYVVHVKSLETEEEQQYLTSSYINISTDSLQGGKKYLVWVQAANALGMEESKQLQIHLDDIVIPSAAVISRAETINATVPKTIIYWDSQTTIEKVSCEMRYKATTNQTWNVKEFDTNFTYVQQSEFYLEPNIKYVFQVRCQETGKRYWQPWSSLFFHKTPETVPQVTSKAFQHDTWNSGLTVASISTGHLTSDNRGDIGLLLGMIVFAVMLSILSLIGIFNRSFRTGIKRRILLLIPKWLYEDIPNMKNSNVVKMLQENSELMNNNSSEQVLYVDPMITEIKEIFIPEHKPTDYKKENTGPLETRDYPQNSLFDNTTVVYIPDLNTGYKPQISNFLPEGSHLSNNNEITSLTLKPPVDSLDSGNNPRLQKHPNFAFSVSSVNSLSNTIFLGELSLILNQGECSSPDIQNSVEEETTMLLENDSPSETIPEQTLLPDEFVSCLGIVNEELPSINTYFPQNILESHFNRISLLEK
# Target: T1, IL23R_huFC
# Test: IL23-IL23R competitive ELISA
row,IC50 [µM],Binder
1,0.5 to 1,Ac-CADWVCYWHFHQLRDA-NH2 (disulfide 1-6 (inferred)) [Ac-CADWVCYWHFHQLRDA-NH2]
2,0.5 to 1,H-CTTWKCYWHQYG-NH2 (disulfide 1-6 (inferred)) [Hy-CTTWKCYWHQYG-NH2]
3,0.5 to 1,H-CADWVCYWHTFG-NH2 (disulfide 1-6 (inferred)) [Hy-CADWVCYWHTFG-NH2]
4,0.5 to 1,Ac-CADWVCYWHEHSERVG-NH2 (disulfide 1-6 (inferred)) [Ac-CADWVCYWHEHSERVG-NH2]
5,0.5 to 1,CADWVCYXHTFG ([2-Nal]; -NH2; disulfide) [Hy-CADWVCY-[2-Nal]-HTFG-NH2]
6,0.5 to 1,H-CRTWTCYWHVYG-NH2 (disulfide 1-6 (inferred)) [Hy-CRTWTCYWHVYG-NH2]
7,0.5 to 1,Ac-CADWVCYWHEFG-NH2 (disulfide 1-6 (inferred)) [Ac-CADWVCYWHEFG-NH2]
8,0.5 to 1,H-CTDWKCYWHEFG-NH2 (disulfide 1-6 (inferred)) [Hy-CTDWKCYWHEFG-NH2]
9,0.5 to 1,Ac-CRDWVCYWHTFG-NH2 (disulfide 1-6 (inferred)) [Ac-CRDWVCYWHTFG-NH2]
10,0.5 to 1,H-CPNWECYWHRFG-NH2 (disulfide 1-6 (inferred)) [Hy-CPNWECYWHRFG-NH2]
11,0.5 to 1,H-CSNWECYWHHYG-NH2 (disulfide 1-6 (inferred)) [Hy-CSNWECYWHHYG-NH2]
12,0.5 to 1,H-CADWMCYWHEYG-NH2 (disulfide 1-6 (inferred)) [Hy-CADWMCYWHEYG-NH2]
13,0.5 to 1,H-CSDWVCYWHVYG-NH2 (disulfide 1-6 (inferred)) [Hy-CSDWVCYWHVYG-NH2]
14,0.5 to 1,CADWVCYXHTFG ([1-Nal]; -NH2; disulfide) [Hy-CADWVCY-[1-Nal]-HTFG-NH2]

# Target: T2, IL-23R on DB cells
# Test: cell-based or functional assay
row,pStat3 HTRF IC50 [nM],Binder
1,< 10,Ac-[dF][Pen]QTWQ[Pen][AEF][2Nal][Aib]K(Ac)NN-NH2 (disulfide 2-7; SMILES CC(=O)NCCCC[C@H](NC(=O)C(C)(C)NC(=O)[C@H](Cc1ccc2ccccc2c1)NC(=O)[C@H](Cc1ccc(OCCN)cc1)NC(=O)[C@H]1NC(=O)[C@H](CCC(N)=O)NC(=O)[C@H](Cc2c[nH]c3ccccc23)NC(=O)[C@H]([C@@H](C)O)NC(=O)[C@H](CCC(N)=O)NC(=O)[C@@H](NC(=O)[C@@H](Cc2ccccc2)NC(C)=O)C(C)(C)SSC1(C)C)C(=O)N[C@@H](CC(N)=O)C(=O)N[C@@H](CC(N)=O)C(N)=O) [Ac-(D)Phe-[Pen]-QTWQ-[Pen]-[Phe[4-(2-aminoethoxy)]-[2-Nal]-[Aib]-[Lys(Ac)]-NN-NH2]
2,< 10,Ac-F[Pen]QTWQ[Pen][AEF][2Nal][Aib]K(Ac)NN-NH2 (disulfide 2-7; SMILES CC(=O)NCCCC[C@H](NC(=O)C(C)(C)NC(=O)[C@H](Cc1ccc2ccccc2c1)NC(=O)[C@H](Cc1ccc(OCCN)cc1)NC(=O)[C@H]1NC(=O)[C@H](CCC(N)=O)NC(=O)[C@H](Cc2c[nH]c3ccccc23)NC(=O)[C@H]([C@@H](C)O)NC(=O)[C@H](CCC(N)=O)NC(=O)[C@@H](NC(=O)[C@H](Cc2ccccc2)NC(C)=O)C(C)(C)SSC1(C)C)C(=O)N[C@@H](CC(N)=O)C(=O)N[C@@H](CC(N)=O)C(N)=O) [Ac-Phe-[Pen]-QTWQ-[Pen]-[Phe[4-(2-aminoethoxy)]-[2-Nal]-[Aib]-[Lys(Ac)]-NN-NH2]
3,< 10,Ac-[dD][Pen]QTWQ[Pen][AEF][2Nal][Aib]K(Ac)NN-NH2 (disulfide 2-7; SMILES CC(=O)NCCCC[C@H](NC(=O)C(C)(C)NC(=O)[C@H](Cc1ccc2ccccc2c1)NC(=O)[C@H](Cc1ccc(OCCN)cc1)NC(=O)[C@H]1NC(=O)[C@H](CCC(N)=O)NC(=O)[C@H](Cc2c[nH]c3ccccc23)NC(=O)[C@H]([C@@H](C)O)NC(=O)[C@H](CCC(N)=O)NC(=O)[C@@H](NC(=O)[C@@H](CC(=O)O)NC(C)=O)C(C)(C)SSC1(C)C)C(=O)N[C@@H](CC(N)=O)C(=O)N[C@@H](CC(N)=O)C(N)=O) [Ac-(D)Asp-[Pen]-QTWQ-[Pen]-[Phe[4-(2-aminoethoxy)]-[2-Nal]-[Aib]-[Lys(Ac)]-NN-NH2]
4,< 10,XNTWQXFXXKNA (Ac; Pen-Pen disulfide; Phe[4-(2-aminoethoxy)]; 2-Nal; Aib; Lys(Ac); βAla; NH2) [Ac-[Pen]-NTWQ-[Pen]-[Phe[4-(2-aminoethoxy)]-[2-Nal]-[Aib]-[Lys(Ac)]-N-[βAla]-NH2]
5,< 10,Ac-E[Pen]QTWQ[Pen][AEF][2Nal][Aib]K(Ac)NN-NH2 (disulfide 2-7; SMILES CC(=O)NCCCC[C@H](NC(=O)C(C)(C)NC(=O)[C@H](Cc1ccc2ccccc2c1)NC(=O)[C@H](Cc1ccc(OCCN)cc1)NC(=O)[C@H]1NC(=O)[C@H](CCC(N)=O)NC(=O)[C@H](Cc2c[nH]c3ccccc23)NC(=O)[C@H]([C@@H](C)O)NC(=O)[C@H](CCC(N)=O)NC(=O)[C@@H](NC(=O)[C@H](CCC(=O)O)NC(C)=O)C(C)(C)SSC1(C)C)C(=O)N[C@@H](CC(N)=O)C(=O)N[C@@H](CC(N)=O)C(N)=O) [Ac-E-[Pen]-QTWQ-[Pen]-[Phe[4-(2-aminoethoxy)]-[2-Nal]-[Aib]-[Lys(Ac)]-NN-NH2]
6,< 10,XNTWQXFXLKNA (Ac; Pen-Pen disulfide; Phe(4-OMe); 2-Nal; hLeu; Lys(Ac); βAla; NH2) [Ac-[Pen]-NTWQ-[Pen]-[Phe(4-OMe)]-[2-Nal]-[hLeu]-[Lys(Ac)]-N-[βAla]-NH2]
7,< 10,XNTWQXFXLKNA (Ac; Pen-Pen disulfide; Phe[4-(2-aminoethoxy)]; 2-Nal; hLeu; Lys(Ac); βAla; NH2) [Ac-[Pen]-NTWQ-[Pen]-[Phe[4-(2-aminoethoxy)]-[2-Nal]-[hLeu]-[Lys(Ac)]-N-[βAla]-NH2]
8,< 10,XNTWQXFXXKNQ (Ac; Pen-Pen disulfide; Phe(4-OMe); 2-Nal; Aib; Lys(Ac); NH2) [Ac-[Pen]-NTWQ-[Pen]-[Phe(4-OMe)]-[2-Nal]-[Aib]-[Lys(Ac)]-NQ-NH2]
9,< 10,Ac-R[Pen]QTWQ[Pen][AEF][2Nal][Aib]K(Ac)NN-NH2 (disulfide 2-7; SMILES CC(=O)NCCCC[C@H](NC(=O)C(C)(C)NC(=O)[C@H](Cc1ccc2ccccc2c1)NC(=O)[C@H](Cc1ccc(OCCN)cc1)NC(=O)[C@H]1NC(=O)[C@H](CCC(N)=O)NC(=O)[C@H](Cc2c[nH]c3ccccc23)NC(=O)[C@H]([C@@H](C)O)NC(=O)[C@H](CCC(N)=O)NC(=O)[C@@H](NC(=O)[C@H](CCCNC(=N)N)NC(C)=O)C(C)(C)SSC1(C)C)C(=O)N[C@@H](CC(N)=O)C(=O)N[C@@H](CC(N)=O)C(N)=O) [Ac-R-[Pen]-QTWQ-[Pen]-[Phe[4-(2-aminoethoxy)]-[2-Nal]-[Aib]-[Lys(Ac)]-NN-NH2]
10,< 10,Ac-[dR][Pen]QTWQ[Pen][AEF][2Nal][Aib]K(Ac)NN-NH2 (disulfide 2-7; SMILES CC(=O)NCCCC[C@H](NC(=O)C(C)(C)NC(=O)[C@H](Cc1ccc2ccccc2c1)NC(=O)[C@H](Cc1ccc(OCCN)cc1)NC(=O)[C@H]1NC(=O)[C@H](CCC(N)=O)NC(=O)[C@H](Cc2c[nH]c3ccccc23)NC(=O)[C@H]([C@@H](C)O)NC(=O)[C@H](CCC(N)=O)NC(=O)[C@@H](NC(=O)[C@@H](CCCNC(=N)N)NC(C)=O)C(C)(C)SSC1(C)C)C(=O)N[C@@H](CC(N)=O)C(=O)N[C@@H](CC(N)=O)C(N)=O) [Ac-(D)Arg-[Pen]-QTWQ-[Pen]-[Phe[4-(2-aminoethoxy)]-[2-Nal]-[Aib]-[Lys(Ac)]-NN-NH2]
11,10 to 25,"Ac-[Pen]QTWQ[Pen][Phe(4-CONH2)][Phe(3,4-(OMe)2)][αMeV]K(Ac)NN-NH2 (disulfide 1-6 (inferred)) [Ac-[Pen]-QTWQ[Pen]-[Phe(4-CONH2)]-[Phe(3,4-OMe2)]-[α-MeVal]-[Lys(Ac)]-NN-NH2]"
12,< 10,XXQTWQXFXXKNN (Ac; 2-Nal twice; Pen-Pen disulfide; Phe[4-(2-aminoethoxy)]; Aib; Lys(Ac); NH2) [Ac-[2-Nal]-[Pen]-QTWQ-[Pen]-[Phe[4-(2-aminoethoxy)]-[2-Nal]-[Aib]-[Lys(Ac)]-NN-NH2]
